Assay results: publication PMC10286996
Where “and” joins values, the source holds several entries; their conditions need not be identical. Identical values can stand only once.

Target: slipper limpet hemocyanin (Crepidula fornicata) (Crepidula fornicata)
Assay: cryo-EM structure; SLH (ion exchange flow-through) at 15 mg/ml, Chameleon grids, Glacios microscope, Relion 3.1; didecamer built with d5, tridecamer with c5 symmetry

## slipper limpet hemocyanin (Crepidula fornicata) (natural protein)
  stoichiometry N: 20 and 30
